“Also recorded” adds a separate entry of the source.
Legend:
[1] = tested on: retinal ganglion cells (RGCs) / optic nerve axons; conditions: SOCS3f/f mice, CNTF applied intravitreously; cited from earlier work
[2] = tested on: corticospinal tract (CST) axons; assay: CST sprouting after intraspinal CNTF injection without pyramidotomy, BDA tracing; format: in vivo, mice
Procedure: For pyramidotomy, mice were anesthetized with ketamine/xylazine. The procedure is similar to that described previously […]. Briefly, an incision was made at the left side of the trachea. Blunt dissection was performed to expose the skull base and a craniotomy in the occipital bone allowed for access to the medullary pyramids. The left pyramid was cut with a fine scalpel medially up to the basilar artery. The wound was dosed in layers with 6.0 sutures. The mice were placed on soft bedding on a warming blanket held at 37° C. until fully awake. We traced the intact CST 4 weeks later with BDA (see below). For CNTF injection into adult SOCS3 f/f mice with neonatal AAV-Cre cortical injection, a laminectomy was performed at C1 and 1 ul of CNTF (10 ug/ml, PeproTech, 450-13) was injected with a nanoliter injector into the ventral side of the dorsal column (0.5 mm deep). BDA tracing was performed 6 weeks later.
To label CST axons by anterograde tracing, a total of 2.0 μl of BDA (10%, Invitrogen, D-1956) was injected into the right sensorimotor cortex at five sites (anterior-posterior coordinates from bregma in mm; 1.0, 0.5, 0, −0.5, −1.0, all at 1.0 mm lateral and at a depth of 0.5 mm). Mice were kept for an additional 2 weeks before being sacrificed.
Mice were given a lethal dose of anesthesia and transcardially perfused with 4% paraformaldehyde. Brains and spinal cords were isolated and post-fixed in the same fixative overnight at 4° C. Tissues were cryoprotected via increasing concentrations of sucrose. After embedding into OCT compound, the samples were snap frozen in dry ice. […]
For the groups of pyramidotomy, digital images of C7 or other levels of the spinal cord transverse sections were collected using a Nikon fluorescence microscope. […]
To quantify the number of sprouting axons, the methods used in previous studies (Liu et al., 2010) were followed. […] Only fibers crossing the three lines were counted in each section. The results were presented after normalization with the number of counted CST fibers at the medulla level. At least three sections were counted for each mouse.

B1: ciliary neurotrophic factor (protein, UniProt P26441 1-200, looked up)
Ciliary neurotrophic factor: MAFTEHSPLTPHRRDLCSRSIWLARKIRSDLTALTESYVKHQGLNKNINLDSADGMPVASTDQWSELTEAERLQENLQAYRTFHVLLARLLEDQQVHFTPTEGDFHQAIHTLLLQVAAFAYQIEELMILLEYKIPRNEADGMPINVGDGGLFEKKLWGLKVLQELSQWTVRSIHDLRFISSHQTGIPARGSHYIANNKKM
- effect of intravitreal CNTF on axon regeneration induced by SOCS3 deletion [1]: enhances axon regeneration induced by SOCS3 deletion
- CST sprouting at C7 spinal cord level ([2]; SOCS3f/f mice, cortical AAV-Cre at P1, CNTF injected at C1, no injury): but not C7; also recorded: No CST sprouts seen
- CST sprouting at C1 spinal cord level ([2]; SOCS3f/f mice, cortical AAV-Cre at P1, CNTF injected into dorsal spinal cord at C1 in adulthood, no injury, vs saline): triggered a significant CST sprouting response; also recorded: promotes sprouting in SOCS3-deleted neurons in the absence of an injury; also recorded: numerous crossing CST axons
- extent of CST sprouting compared with left pyramidotomy ([2]; single CNTF injection at C1, SOCS3-deleted mice): less than after left pyramidotomy; also recorded: less pronounced than what is seen after injury

Source: patent publication US10918697B2, “Co-activation of mTOR and STAT3 pathways to promote neuronal survival and regeneration” (Children's Medical Center Corporation, priority 2011, dated 2021)
